# According to paper PMC12865031, “Mechanistic insights into PCBP1-driven unfolding of selected i-motif DNA at G1/S checkpoint”:
# Columns and labels:
# PCBP1 (wild type) [1] = target: T1, PCBP1 (wild type) (UniProt Q15365 1-356); assay: CD titration; stronger blue-shift than wild-type BCL2; MST: 20 mM MES pH 6.4, phosphate pH 7.0 or Tris-Cl pH 8.0, 100 mM NaCl, 25 C; EMSA: 20 mM Bis-Tris pH 6.4 or Tris-HCl pH 8.0, 100 mM NaCl, 0.25 mg/mL BSA, 25 C; NMR/CD: 20 mM MES pH 6.4, 100 mM NaCl; footprinting 20 mM MES pH 6.4, 50 mM NaCl; details: protein: recombinant; tags: His tag (pET-His1a), removed by TEV; i-motif without hairpin
# PCBP1 KH1+2;PCBP1 KH3 [2] = target: T2, PCBP1 KH1+2;PCBP1 KH3 (Homo sapiens?;Homo sapiens?, UniProt Q15365;Q15365 1-169;269-356, |); assay: MST; pH 6.4; affinity and selectivity for i-motif restored; MST: 20 mM MES pH 6.4, phosphate pH 7.0 or Tris-Cl pH 8.0, 100 mM NaCl, 25 C; EMSA: 20 mM Bis-Tris pH 6.4 or Tris-HCl pH 8.0, 100 mM NaCl, 0.25 mg/mL BSA, 25 C; NMR/CD: 20 mM MES pH 6.4, 100 mM NaCl; footprinting 20 mM MES pH 6.4, 50 mM NaCl; details: protein: recombinant;recombinant, tags: His tag (pET-His1a), removed by TEV;His tag (pET-His1a), copies: 1;1, label: 5'-Cy5 (EMSA, MST), intramolecular i-motif at pH 6.4, unfolded at pH 7.0 and 8.0
# PCBP1 KH1+2 [3] = target: T3, PCBP1 KH1+2 (UniProt Q15365 1-169); assay: MST; pH 6.4; no structural selectivity; MST: 20 mM MES pH 6.4, phosphate pH 7.0 or Tris-Cl pH 8.0, 100 mM NaCl, 25 C; EMSA: 20 mM Bis-Tris pH 6.4 or Tris-HCl pH 8.0, 100 mM NaCl, 0.25 mg/mL BSA, 25 C; NMR/CD: 20 mM MES pH 6.4, 100 mM NaCl; footprinting 20 mM MES pH 6.4, 50 mM NaCl; details: protein: recombinant; tags: His tag (pET-His1a), removed by TEV; label: 5'-Cy5 (EMSA, MST); intramolecular i-motif at pH 6.4; unfolded at pH 7.0 and 8.0
# PCBP1 (wild type) [4] = target: T1, PCBP1 (wild type); assay: EMSA; pH 6.4, i-motif; MST: 20 mM MES pH 6.4, phosphate pH 7.0 or Tris-Cl pH 8.0, 100 mM NaCl, 25 C; EMSA: 20 mM Bis-Tris pH 6.4 or Tris-HCl pH 8.0, 100 mM NaCl, 0.25 mg/mL BSA, 25 C; NMR/CD: 20 mM MES pH 6.4, 100 mM NaCl; footprinting 20 mM MES pH 6.4, 50 mM NaCl; details: protein: recombinant; tags: His tag (pET-His1a), removed by TEV; label: 5'-Cy5 (EMSA, MST); intramolecular i-motif at pH 6.4; unfolded at pH 7.0 and 8.0
# PCBP1 KH1+2 [5] = target: T3, PCBP1 KH1+2; assay: bromine footprinting; pH 6.4; increased cleavage at C3-C5 and C12-C14; MST: 20 mM MES pH 6.4, phosphate pH 7.0 or Tris-Cl pH 8.0, 100 mM NaCl, 25 C; EMSA: 20 mM Bis-Tris pH 6.4 or Tris-HCl pH 8.0, 100 mM NaCl, 0.25 mg/mL BSA, 25 C; NMR/CD: 20 mM MES pH 6.4, 100 mM NaCl; footprinting 20 mM MES pH 6.4, 50 mM NaCl; details: protein: recombinant; tags: His tag (pET-His1a), removed by TEV; label: 3'-Cy5; intramolecular i-motif at pH 6.4
# PCBP1 KH1+2;PCBP1 KH3 [6] = target: T2, PCBP1 KH1+2;PCBP1 KH3; assay: bromine footprinting; pH 6.4; cleavage enhanced across all Cs; MST: 20 mM MES pH 6.4, phosphate pH 7.0 or Tris-Cl pH 8.0, 100 mM NaCl, 25 C; EMSA: 20 mM Bis-Tris pH 6.4 or Tris-HCl pH 8.0, 100 mM NaCl, 0.25 mg/mL BSA, 25 C; NMR/CD: 20 mM MES pH 6.4, 100 mM NaCl; footprinting 20 mM MES pH 6.4, 50 mM NaCl; details: protein: recombinant;recombinant, tags: His tag (pET-His1a), removed by TEV;His tag (pET-His1a), copies: 1;1, label: 3'-Cy5, intramolecular i-motif at pH 6.4
# PCBP1 (wild type) [7] = target: T1, PCBP1 (wild type); assay: bromine footprinting; pH 6.4; enhanced cleavage across all Cs; MST: 20 mM MES pH 6.4, phosphate pH 7.0 or Tris-Cl pH 8.0, 100 mM NaCl, 25 C; EMSA: 20 mM Bis-Tris pH 6.4 or Tris-HCl pH 8.0, 100 mM NaCl, 0.25 mg/mL BSA, 25 C; NMR/CD: 20 mM MES pH 6.4, 100 mM NaCl; footprinting 20 mM MES pH 6.4, 50 mM NaCl; details: protein: recombinant; tags: His tag (pET-His1a), removed by TEV; label: 3'-Cy5; intramolecular i-motif at pH 6.4
# PCBP1 (wild type) [8] = target: T1, PCBP1 (wild type); assay: EMSA; pH 6.4; MST: 20 mM MES pH 6.4, phosphate pH 7.0 or Tris-Cl pH 8.0, 100 mM NaCl, 25 C; EMSA: 20 mM Bis-Tris pH 6.4 or Tris-HCl pH 8.0, 100 mM NaCl, 0.25 mg/mL BSA, 25 C; NMR/CD: 20 mM MES pH 6.4, 100 mM NaCl; footprinting 20 mM MES pH 6.4, 50 mM NaCl; details: protein: recombinant; tags: His tag (pET-His1a), removed by TEV; label: 5'-Cy5 (EMSA); unfolded
# PCBP1 (wild type) [9] = target: T1, PCBP1 (wild type); assay: EMSA; pH 6.4, i-motif; two shifted bands; MST: 20 mM MES pH 6.4, phosphate pH 7.0 or Tris-Cl pH 8.0, 100 mM NaCl, 25 C; EMSA: 20 mM Bis-Tris pH 6.4 or Tris-HCl pH 8.0, 100 mM NaCl, 0.25 mg/mL BSA, 25 C; NMR/CD: 20 mM MES pH 6.4, 100 mM NaCl; footprinting 20 mM MES pH 6.4, 50 mM NaCl; details: protein: recombinant; tags: His tag (pET-His1a), removed by TEV; label: 5'-Cy5 (EMSA, MST); intramolecular i-motif with co-existing hairpin at pH 6.4; unfolded at pH 7.0 and 8.0
# PCBP1 (wild type) [10] = target: T1, PCBP1 (wild type); assay: MST; pH 6.4, i-motif; stronger than pH 8.0; MST: 20 mM MES pH 6.4, phosphate pH 7.0 or Tris-Cl pH 8.0, 100 mM NaCl, 25 C; EMSA: 20 mM Bis-Tris pH 6.4 or Tris-HCl pH 8.0, 100 mM NaCl, 0.25 mg/mL BSA, 25 C; NMR/CD: 20 mM MES pH 6.4, 100 mM NaCl; footprinting 20 mM MES pH 6.4, 50 mM NaCl; details: protein: recombinant; tags: His tag (pET-His1a), removed by TEV; label: 5'-Cy5 (MST); i-motif at pH 6.4 and 7.0; unfolded at pH 8.0
# T1 sequence (Q15365 whole entry): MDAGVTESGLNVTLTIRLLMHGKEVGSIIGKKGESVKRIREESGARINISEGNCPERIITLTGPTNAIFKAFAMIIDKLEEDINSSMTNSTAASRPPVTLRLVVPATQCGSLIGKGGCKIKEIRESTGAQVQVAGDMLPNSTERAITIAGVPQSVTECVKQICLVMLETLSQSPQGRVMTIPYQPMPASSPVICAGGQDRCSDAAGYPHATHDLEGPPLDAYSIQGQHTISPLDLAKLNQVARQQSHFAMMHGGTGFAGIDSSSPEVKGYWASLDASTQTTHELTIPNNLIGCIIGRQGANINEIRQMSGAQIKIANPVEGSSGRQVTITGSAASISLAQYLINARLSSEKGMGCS
# T3 sequence (Q15365 1-169): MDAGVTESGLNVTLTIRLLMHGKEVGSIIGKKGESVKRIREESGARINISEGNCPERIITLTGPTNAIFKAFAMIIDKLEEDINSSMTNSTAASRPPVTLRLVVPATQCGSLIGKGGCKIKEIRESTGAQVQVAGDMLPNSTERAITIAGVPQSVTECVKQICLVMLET
# T2 sequence (Q15365 1-169, chain 1 of 2): as the sequence (Q15365 1-169) above
# T2 sequence (Q15365 269-356, chain 2 of 2): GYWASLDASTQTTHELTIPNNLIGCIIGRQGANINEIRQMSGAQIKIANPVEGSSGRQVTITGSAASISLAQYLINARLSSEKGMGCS
binder,measurement,setting,value
CATCCCCTCTCCCTCCCCCTTCCTCCCTCTCCCTCCCCT (structured_DNA) [BCL2-Gall>T],binding result,PCBP1 (wild type) [1],binds
AATCCCACCCCTCCCATCCCTT (structured_DNA) [cMYC-iMfs],binding result,PCBP1 KH1+2;PCBP1 KH3 [2],binds
same,binding result,PCBP1 KH1+2 [3],binds
same,binding result,PCBP1 (wild type) [4],binds
AATCCCACCCCTCCCATCCCTTTTT (structured_DNA) [cMYC-iMfs-Br],binding result,PCBP1 KH1+2 [5],binds
same,binding result,PCBP1 KH1+2;PCBP1 KH3 [6],binds
same,binding result,PCBP1 (wild type) [7],binds
TACACTCACACTCACACTCACACTCAA (ssDNA) [mutC],binding result,PCBP1 (wild type) [8],no binding
CCCTAACCCTAACCCTAACCCT (structured_DNA) [hTeloC-iMfs],binding result,PCBP1 (wild type) [4],binds
CAGCCCCGCTCCCGCCCCCTTCCTCCCGCGCCCGCCCCT (structured_DNA) [BCL2-iMfs],binding result,PCBP1 (wild type) [9],binds
CAGCCCCGCTCCCGCCCCCTTCCTCCCTCTCCCGCCCCT (structured_DNA) [BCL2-G10TG12T],binding result,PCBP1 (wild type) [1],binds
TGTCCCCACACCCCTGTCCCCACACCCCTGT (structured_DNA) [ILPR-iMfs],binding result,PCBP1 (wild type) [4],binds
CCCCCCCTTTCCCCCCCTTTCCCCCCCTTTCCCCCCC (structured_DNA) [C7T3-iMfs],binding result,PCBP1 (wild type) [10],binds
